T1: human LAG3 expressed on HEK293 cells (human, UniProt P18627 23-525)
T1 construct: also called hLAG3; HEK293/hLAG3
T1 sequence: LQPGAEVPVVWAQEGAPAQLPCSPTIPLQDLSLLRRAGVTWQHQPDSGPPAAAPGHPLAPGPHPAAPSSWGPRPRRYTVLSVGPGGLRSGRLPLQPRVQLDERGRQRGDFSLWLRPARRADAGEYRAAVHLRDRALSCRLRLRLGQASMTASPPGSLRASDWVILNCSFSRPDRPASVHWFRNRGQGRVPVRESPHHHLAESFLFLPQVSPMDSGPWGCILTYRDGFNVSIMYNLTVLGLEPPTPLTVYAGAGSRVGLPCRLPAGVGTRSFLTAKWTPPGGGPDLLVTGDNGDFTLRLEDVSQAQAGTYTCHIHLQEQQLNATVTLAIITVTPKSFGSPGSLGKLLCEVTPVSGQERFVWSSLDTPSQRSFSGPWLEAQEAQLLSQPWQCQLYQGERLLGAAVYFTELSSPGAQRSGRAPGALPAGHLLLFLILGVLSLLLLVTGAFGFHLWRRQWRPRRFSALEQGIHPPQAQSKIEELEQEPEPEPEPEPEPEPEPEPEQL

T2: monkey LAG3 (mfLAG3) expressed on HEK293 cells (cynomolgus monkey, UniProt P18627 24-525 (human entry))
T2 construct: also called HEK293/mfLAG3; HEK293-mfLAG3
T2 chain: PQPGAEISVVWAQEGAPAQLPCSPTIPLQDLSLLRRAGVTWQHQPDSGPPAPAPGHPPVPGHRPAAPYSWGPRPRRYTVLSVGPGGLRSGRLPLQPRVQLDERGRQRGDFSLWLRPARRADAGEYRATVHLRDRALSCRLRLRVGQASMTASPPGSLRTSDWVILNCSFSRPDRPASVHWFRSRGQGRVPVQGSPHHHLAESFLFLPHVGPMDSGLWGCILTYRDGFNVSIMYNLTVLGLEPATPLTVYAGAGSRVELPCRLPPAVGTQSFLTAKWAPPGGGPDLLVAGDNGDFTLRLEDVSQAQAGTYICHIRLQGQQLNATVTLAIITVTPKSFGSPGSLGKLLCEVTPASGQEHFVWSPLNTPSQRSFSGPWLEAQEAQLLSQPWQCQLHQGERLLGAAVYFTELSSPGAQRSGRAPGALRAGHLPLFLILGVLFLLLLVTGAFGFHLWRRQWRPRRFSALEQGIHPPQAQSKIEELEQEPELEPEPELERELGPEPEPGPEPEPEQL

B1: H4H15483P (antibody, human IgG4, V domains shown)
VH: QVQLQQWGAGLLPPSETLSLICAVYGGSFSGYYWSWIRQPPGKGLEWIGEINHRGSTNYNPSLKSRATISVDTSKNQFSLKLSSVTAADTAVYYCSRGEDYYDSSGYSYYFDYWGQGTLVTVSS
VL: EIVLTQSPATLSLSPGERATLSCRASQSVSSYLAWYQQKPGQAPRLLIYDASNRATGIPARFSGSGSGTDFTLTISSLEPEDFAVYYCQQRSNWPLTFGGGTKVEIK
notes: H4H = human IgG4 Fc with S108P hinge mutation
B2: H4H17819P (antibody, human IgG4, V domains shown)
VH: EVQLVESGGGLVQPGGSLRLSCVASGFTFSLYAMTWVRQVPGKGLEWVSTISGSGGGTYYTDSVKGRFTISRDNSKNTLYLQMNSLRADDTAVFYCTKESTTGTYSYFYGMDVWGQGTTVTVSS
VL: DIQMTQSPSSLSASVGDRVTITCRASQTISSYLNWYQQKPGKAPKLLIYAASSLQSGVPSRFSGSGSGTDFTLTLSGLQPEDFATYYCQQSYSTPLTFGGGTKVEIK
notes: as for B1
B3: H4H17826P2 (antibody, human IgG4, V domains shown)
VH: EVQLVESGGGLVQPGGSLRLSCAASGFTFSSYEMNWVRQAPGKGLEWVSYISSSGNTKDYAGSVKGRVTISRDNAKNLLYLQMNSLRAEDTAVYHCARDGGHYDILTGSMSYYYYALDVWGQGTTVTVSS
VL: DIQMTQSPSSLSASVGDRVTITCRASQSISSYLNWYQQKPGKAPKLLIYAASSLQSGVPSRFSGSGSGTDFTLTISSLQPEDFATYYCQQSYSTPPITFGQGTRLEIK
notes: as for B1
B4: H4sH15462P (antibody, V domains shown)
VH: QVQLVQSGAEVKKPGASVKVSCKASGYTFTNYYIHWVRQAPGQGLDWMGIINPGGGNTNYAQKFLGRVTMTRDTSTTTVYMELSSLRSEDTAIYYCARENWNSYFDNWGQGTLVTVSS
VL: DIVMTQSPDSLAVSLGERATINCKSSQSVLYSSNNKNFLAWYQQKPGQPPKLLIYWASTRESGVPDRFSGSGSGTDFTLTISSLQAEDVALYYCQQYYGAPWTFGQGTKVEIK
notes: H4sH = human IgG4 Fc with 2 or more amino acid changes as disclosed in US20140243504
B5: H4H15462P (antibody, human IgG4, V domains shown)
VH: B4 VH
VL: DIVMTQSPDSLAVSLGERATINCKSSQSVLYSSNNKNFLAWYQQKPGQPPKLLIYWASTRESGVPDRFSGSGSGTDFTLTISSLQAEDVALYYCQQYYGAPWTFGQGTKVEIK
notes: as for B1

What follows are binders tested against T1, human LAG3 expressed on HEK293 cells (assay: electrochemiluminescence cell binding, HEK293-hLAG3).
Description: (§1) To investigate the ability of a panel of anti-LAG3 monoclonal antibodies to bind cell-surface expressed LAG3, an in vitro binding assay utilizing human and monkey LAG3 expressing cell lines in an electrochemiluminescence based detection platform [Meso Scale Diagnostics, Rockville, Md.—(MSD)] was developed.
(§2) Experiments were carried out according to following procedure. Cells from the three cell lines described above were rinsed once in 1×PBS buffer without Ca²⁺/Mg²⁺ followed by 10-minute incubation at 37° C. with Enzyme Free Cell Dissociation Solution. […] Approximately 10,000 cells per well in the cell-washing buffer were seeded into the 96-well carbon electrode plates (MULTI-ARRAY high bind plate, MSD) and incubated for 1 hour at 37° C. to allow the cells to adhere. Nonspecific binding sites were blocked by 2% BSA (w/v) in PBS for 1 hour at room temperature. […] The plates were then washed to remove the unbound antibodies using an AquaMax2000 plate washer (MDS Analytical Technologies). The plate-bound antibodies were detected with a SULFO-TAG™-conjugated anti-human IgG antibody (MSD) for 1 hour at room temperature. After washes, the plates were developed with the Read Buffer (MSD) according to manufacturer's recommended procedure and the luminescent signals were recorded with a SECTOR Imager 6000 (MSD) instrument. The direct binding signals (in relative light units—RLU) were analyzed as a function of the antibody concentration and the data were fitted with a sigmoidal (four-parameter logistic) dose-response model using Graph Pad Prism™ software. The potency of each antibody was determined by calculating EC₅₀.

Binder	EC50
B1	17.2 nM
B2	0.69 nM
B3	3.48 nM
B4	0.853 nM
B5	6.85 nM

What follows are binders tested against T1, human LAG3 expressed on HEK293 cells (assay: electrochemiluminescence cell binding).
Description: as §1, §2

Binder	Ratio of 100 nM antibody binding HEK293-hLAG3 to HEK293 cells
B1	6.6
B2	22.7
B3	7
B4	6.8
B5	2.3

Target: T2, monkey LAG3 (mfLAG3) expressed on …
Experiment: flow cytometry, HEK293/mfLAG3 cells
Description: (§3) The serially diluted antibodies were added to the cell suspension and incubated for 15-30 minutes on ice. The cells were centrifuged and pellets were washed with staining buffer to remove unbound antibodies. […] The cells were centrifuged and pellets were washed with staining buffer to remove unbound secondary F(ab′)2 and fixed overnight with a 1:1 dilution of Cytofix (BD Biosciences, #554655) and staining buffer. Following day, fixed cells were centrifuged and pellets were washed with staining buffer, resuspended and filtered. Fluorescence measurements were acquired on HyperCyt® cytometer and analyzed in ForeCyt™ (IntelliCyt; Albuquerque, N. Mex.) to determine the mean fluorescence intensities (MFI). The EC₅₀ values were calculated from a four-parameter logistic equation over an 11-point response curve using GraphPad Prism. EC₅₀ was defined as the concentration of antibody at which 50% of maximal binding signal is detected. The MFI ratio for each antibody was calculated by dividing the MFI at 100 nM by MFI at 0 nM of antibody concentration.

Binder	EC50	Ratio of MFI (100 nM/0 nM)	binding result
B1	> 10 nM	8.8	–
B2	> 10 nM	12.1	–
B3	> 10 nM	14.3	–
B4	–	1	no binding (tested: 100 nM)
B5	–	2.9	no binding (tested: 100 nM)

The binders below were run against T1, human LAG3 expressed on HEK293 cells (assay: flow cytometry, HEK293/hLAG3 cells).
Description: as §3

Binder	EC50	Ratio of MFI (100 nM/0 nM)
B1	2.31 nM	206
B2	2.79 nM	436
B3	3.86 nM	414
B4	0.665 nM	182
B5	0.3 nM	62.6

Each binder was assayed against T1, human LAG3 expressed on HEK293 cells (assay: cell adherence assay, blocks RAJI (human MHCII) cells on HEK293-hLAG3).
Description: Cells were plated into sterile Nunclon™ Delta 96-Well MicroWell™ Black Optical Bottom Plates (Thermo Scientific). The wells from the perimeter of the plate were not included in the assay design to avoid edge effects.
On the day of treatment, all antibodies were serially (1:3) diluted in RPMI media (without FBS or supplements added). The 9-point dilution ranged between 45 pM to 300 nM, with the last dilution point containing no mAb. […] While the plated HEK293-LAG3 cells were incubating with the test or control antibodies, non-adherent B-cells (RAJI or A20) were labeled with Calcein AM using the following procedure. RAJI and A20 suspension cells were harvested and centrifuged at 1,200 rpm for 5 minutes. Cell pellets were resuspended in 1×PBS and counted. Cells were washed with RPMI, and resuspended in RPMI at a concentration of 10⁶ cells per 1 ml. Cells were labeled by adding 5 μL of Calcein AM per 1 ml of cell suspension and incubated for 30 min at 37° C., at 5% CO₂. […] Subsequently, 10 μL of BD Pharmingen Fc Block (0.5 mg/mL) was added per 1 ml of the Calcein AM labeled cells, which were incubated at RT for 10 minutes. The Calcein AM-stained, Fc-blocked RAJI or A20 cells were resuspended in RPMI to a final concentration of 3×10⁶ cells per 1 ml and subsequently used in the adherence assay.
The labeled suspension cells were incubated with the HEK293 monolayer for 1 hour at 37° C., at 5% CO₂.

Binder	IC50
B1	19 nM
B2	17 nM
B3	27 nM
B4	2.5 nM
B5	3.2 nM

Source: patent US20170101472A1 (Regeneron, published 2017)
